# Data: PMC12494820, “Predicting input signals of transcription factors in Escherichia coli” (Molecular Systems Biology, 2025)
# Experiments:
# [1] = test system: LeuO (Escherichia coli); test: EMSA; conditions: EMSA: 10 mM Tris-HCl, 50 mM KCl, 5 mM MgCl2, 5% glycerol, 0.1 mg/ml BSA, pH 7.5, 500 ng salmon sperm DNA in 20 µl, 15 min at room temperature; gel 0.5x TBE at …
# [2] = target: T1, LeuO (Escherichia coli, UniProt P10151); test: thermal shift assay (Protein Thermal Shift Dye); type: binding; conditions: 10 mM compound; LeuO with leuLABCD promoter DNA; pH 7.5, EMSA buffer without BSA; activating effector
# T1 sequence (P10151 1-314): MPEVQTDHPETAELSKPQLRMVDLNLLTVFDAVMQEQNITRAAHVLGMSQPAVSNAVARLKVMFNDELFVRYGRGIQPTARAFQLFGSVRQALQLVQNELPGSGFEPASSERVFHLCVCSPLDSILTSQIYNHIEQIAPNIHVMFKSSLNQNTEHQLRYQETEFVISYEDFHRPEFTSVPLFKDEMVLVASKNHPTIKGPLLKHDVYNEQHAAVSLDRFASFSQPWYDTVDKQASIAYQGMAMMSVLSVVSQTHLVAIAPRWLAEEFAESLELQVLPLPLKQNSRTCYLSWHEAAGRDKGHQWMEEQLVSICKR
Compound,K half [1] [nM],ΔTm [2] [°C]
leuLABCD promoter region fragment,25,
"CC(C)[C@@](O)(CC(=O)O)C(=O)O [2-IPM, 2-isopropylmalate]",,1.6
